From US20090214427

How the values were obtained:
[1] = target: T1, synthetic peptide HK2p01 (SRFKVWWAAG)
T1 chain: SRFKVWWAAG

[2] = target: T2, synthetic peptide HK2p02 (AARRPFPAPS)
T2 chain: AARRPFPAPS

[3] = target: T3, synthetic peptide HK2p03 (PARRPFPVTA)
T3 chain: PARRPFPVTA

Measured: enzyme activity (chromogenic substrate)

B1: human trypsin 3 (protein)
chain: IVGGYTCEENSLPYQVSLNSGSHFCGGSLISEQWVVSAAHCYKTRIQVRLGEHNIKVLEGNEQFINAAKIIRHPKYNRDTLDNDIMLIKLSSPAVINARVSTISLPTTPPAAGTECLISGWGNTLSFGADYPDELKCLDAPVLTQAECKASYPGKITNSMFCVGFLEGGKDSCQRDSGGPVVCNGQLQGVVSWGHGCAWKNRPGVYTKVYNYVDWIKDTIAANS
showed no inhibition: all assays above

B2: human trypsin 2 (protein)
chain: IVGGYICEENSVPYQVSLNSGYHFCGGSLISEQWVVSAGHCYKSRIQVRLGEHNIEVLEGNEQFINAAKIIRHPKYNSRTLDNDILLIKLSSPAVINSRVSAISLPTAPPAAGTESLISGWGNTLSSGADYPDELQCLDAPVLSQAECEASYPGKITNNMFCVGFLEGGKDSCQGDSGGPVVSNGELQGIVSWGYGCAQKNRPGVYTKVYNYVDWIKDTIAANS
showed no inhibition: all assays above

B3: human plasmin (protein)
chain: KVYLSECKTGNGKNYRGTMSKTKNGITCQKWSSTSPHRPRFSPATHPSEGLEENYCRNPDNDPQGPWCYTTDPEKRYDYCDILECEEECMHCSGENYDGKISKTMSGLECQAWDSQSPHAHGYIPSKFPNKNLKKNYCRNPDRELRPWCFTTDPNKRWELCDIPRCTTPPPSSGPTYQCLKGTGENYRGNVAVTVSGHTCQHWSAQTPHTHNRTPENFPCKNLDENYCRNPDGKRAPWCHTTNSQVRWEYCKIPSCDSSPVSTEQLAPTAPPELTPVVQDCYHGDGQSYRGTSSTTTTGKKCQSWSSMTPHRHQKTPENYPNAGLTMNYCRNPDADKGPWCFTTDPSVRWEYCNLKKCSGTEASVVAPPPVVLLPDVETPSEEDCMFGNGKGYRGKRATTVTGTPCQDWAAQEPHRHSIFTPETNPRAGLEKNYCRNPDGDVGGPWCYTTNPRKLYDYCDVPQCAAPSFDCGKPQVEPKKCPGRVVGGCVAHPHSWPWQVSLRTRFGMHFCGGTLISPEWVLTAAHCLEKSPRPSSYKVILGAHQEVNLEPHVQEIEVSRLFLEPTRKDIALLKLSSPAVITDKVIPACLPSPNYVVADRTECFITGWGETQGTFGAGLLKEAQLPVIENKVCNRYEFLNGRVQSTELCAGHLAGGTDSCQGDSGGPLVCFEKDKYILQGVTSWGLGCARPNKPGVYVRVSRFVTWIEGVMRNN
showed no inhibition: all assays above
